From article PMC9330529 come the findings set out here.

Like-named read-outs stand apart in the source and are kept apart here.

Data set [1] has as its target SARS-CoV-2 spike protein WT (SARS-CoV-2 (WT)) (UniProt P0DTC2).
Data set [2] shares this target. The data set is described as follows: competition ELISA.
The target is the same in data set [3]. This is another data set of the same source.
Data set [4] shares this target. The source holds these as a separate data set.

Broadly, the Kd is a measure of binding affinity in units of concentration. Read a high Kd as weaker binding. Take “AGGCGGGTTCCTAGACTTGTACTCAGCCTTTTTTTTTTTTTTTTCGCAGCACCCAAGAACAAGGACTGCTTAGGATTGCGATAGGTTCGG [S2A2C1-T15-S1B6C3]”: the Kd in data set [1] turned out to be 61.4 nM.

On to “CGCAGCACCCAAGAACAAGGACTGCTTAGGATTGCGATAGGTTCGGAAAAAAAAAAAAAAAAGGCGGGTTCCTAGACTTGTACTCAGCCT [S1B6C3-A15-S2A2C1]”, for which the binding signal (% spike still bound to hACE2) in data set [2] stood at 12.

Turning to “CGCAGCACCCAAGAACAAGGACTGCTTAGGATTGCGATAGGTTCGGAAAAAAGGCGGGTTCCTAGACTTGTACTCAGCCT [S1B6C3-A5-S2A2C1]”, in data set [2], the binding signal (% spike still bound to hACE2) was 8. In addition, the values for the Kd in data set [3] and in data set [4] were 34.6 nM and 35.8 nM, respectively.

In the case of “CGCAGCACCCAAGAACAAGGACTGCTTAGGATTGCGATAGGTTCGGTTTTTTTTTTTTTTTAGGCGGGTTCCTAGACTTGTACTCAGCCT [S1B6C3-T15-S2A2C1]”, the Kd in data set [1] is 46.1 nM. For the same sequence, the binding signal (% spike still bound to hACE2) in data set [2] was determined as 24.
